From article PMC3536758 come the findings set out here.

In this data set the target is T1, MBP-ComKBco (Bacillus coagulans DSM 1) (UniProt K4MVI2).
T1 sequence: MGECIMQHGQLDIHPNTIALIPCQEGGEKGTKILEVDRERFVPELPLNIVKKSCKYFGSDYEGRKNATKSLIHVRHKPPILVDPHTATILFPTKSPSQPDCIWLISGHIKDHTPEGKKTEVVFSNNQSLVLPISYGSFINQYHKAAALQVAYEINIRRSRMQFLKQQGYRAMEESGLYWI
Briefly: EMSA. The settings on record: EMSA: binding buffer (composition not given) with poly(dI-dC), premixed on ice, 20 min at 30 C; 6% polyacrylamide gel in 1x TBE, 90 V, 60 min; pH and salt not …. (In general: Mobility shift assays separate free from complexed probe on a gel.)

For the sequence “ACGGGTACCATTTGCCGGAAATCGACGTGCCGGCAGCAGGACATAAAAGTGACCCGGTCGCAATAAAGGGGCAATAAGTTTTCGGCATGTTCATCCTTGCCATTACATATGCTTAATATCGCCCGTTGCTTGCCGGTAGCGAACCAAGAAAATACCATATGCTGAAAGATCAGAGGGATCAAACATGCATGGATTATGGACAGCTTATTTTGCGGGGCCCCGT (double strand) [comCBco promoter]”, the binding entry is listed as “binds more weakly”.
